Assay in all cases: single-molecule TIRF microscopy
Test [1] deals with Taxol-stabilized rhodamine-labeled biotinylated microtubules (bovine) (UniProt Q6B856).
The target is the same in test [2]. The source holds these as a separate data set.
Test [3] shares this target. This is another data set of the same source.
For test [4] the target is unchanged. The source holds these as a separate data set.
Test [5] has the same target. The source holds these as a separate data set.
Test [6] shares this target. The source holds these as a separate data set.
For test [7] the target is unchanged. The source holds these as a separate data set.
Test [8] shares this target. This is another data set of the same source.
Test [9] shares this target. The source holds these as a separate data set.
The target is the same in test [10]. The source holds these as a separate data set.
For test [11] the target is unchanged. This is another data set of the same source.
Test [12] has the same target. The source holds these as a separate data set.

Read-outs that look alike come from different tables or passages of the source.

B1: GFP-tagged Kif4A (natural protein)
chain: MKEEVKGIPVRVALRCRPLVPKEISEGCQMCLSFVPGEPQVVVGTDKSFTYDFVFDPSTEQEEVFNTAVAPLIKGVFKGYNATVLAYGQTGSGKTYSMGGAYTAEQENEPTVGVIPRVIQLLFKEIDKKSDFEFTLKVSYLEIYNEEILDLLCPSREKAQINIREDPKEGIKIVGLTEKTVLVALDTVSCLEQGNNSRTVASTAMNSQSSRSHAIFTISLEQRKKSDKNSSFRSKLHLVDLAGSERQKKTKAEGDRLKEGININRGLLCLGNVISALGDDKKGGFVPYRDSKLTRLLQDSLGGNSHTLMIACVSPADSNLEETLNTLRYADRARKIKNKPIVNIDPQTAELNHLKQQVQQLQVLLLQAHGGTLPGSITVEPSENLQSLMEKNQSLVEENEKLSRGLSEAAGQTAQMLERIILTEQANEKMNAKLEELRQHAACKLDLQKLVETLEDQELKENVEIICNLQQLITQLSDETVACMAAAIDTAVEQEAQVETSPETSRSSDAFTTQHALRQAQMSKELVELNKALALKEALARKMTQNDSQLQPIQYQYQDNIKELELEVINLQKEKEELVLELQTAKKDANQAKLSERRRKRLQELEGQIADLKKKLNEQSKLLKLKESTERTVSKLNQEIRMMKNQRVQLMRQMKEDAEKFRQWKQKKDKEVIQLKERDRKRQYELLKLERNFQKQSNVLRRKTEEAAAANKRLKDALQKQREVADKRKETQSRGMEGTAARVKNWLGNEIEVMVSTEEAKRHLNDLLEDRKILAQDVAQLKEKKESGENPPPKLRRRTFSLTEVRGQVSESEDSITKQIESLETEMEFRSAQIADLQQKLLDAESEDRPKQRWENIATILEAKCALKYLIGELVSSKIQVSKLESSLKQSKTSCADMQKMLFEERNHFAEIETELQAELVRMEQQHQEKVLYLLSQLQQSQMAEKQLEESVSEKEQQLLSTLKCQDEELEKMREVCEQNQQLLRENEIIKQKLTLLQVASRQKHLPKDTLLSPDSSFEYVPPKPKPSRVKEKFLEQSMDIEDLKYCSEHSVNEHEDGDGDDDEGDDEEWKPTKLVKVSRKNIQGCSCKGWCGNKQCGCRKQKSDCGVDCCCDPTKCRNRQQGKDSLGTVERTQDSEGSFKLEDPTEVTPGLSFFNPVCATPNSKILKEMCDVEQVLSKKTPPAPSPFDLPELKHVATEYQENKAPGKKKKRALASNTSFFSGCSPIEEEAH
Take B1: the lifetime on the microtubule (median) in [1] worked out at 4.2 s; in test [2], 2.1 s; in test [3], 7.2 s; in test [4], 1.2 s; in [5], 1.8 s; in test [6], 4.9 s. Besides, the lifetime on the microtubule (median) in [7] worked out at 17.9 s; in test [8], 1.5 s; in test [9], 3.6 s; in test [10], 3.9 s; in test [11] it was 9 s; in test [12] it was 8.3 s.

The values above are taken from publication doi:10.1101/2020.12.23.424221.
